According to article PMC2920069, “KTN (RCK) Domains Regulate K^+ Channels and Transporters by Controlling the Dimer-Hinge Conformation” (Structure(London, England:1993), 2009):

Columns and labels:
[1] = molecular target: the molecule itself; test: SEC-MALS; size exclusion chromatography with in-line MiniDAWN TREOS light scattering and refractive index detection; 50 mM HEPES pH 7.5, 150 mM KCl, 1 mM DTT or TCEP; with and without GSH, S-lactoyl-GSH or N-ethylsuccinimido-S-glutathione and NAD+ or NADH (1 mM)
[2] = molecular target: the molecule itself; test: native gel or EMSA; blue native PAGE (Novex 4-16% BisTris) of membranes solubilized with 1.5% dodecylmaltoside, without KefF; western blot with anti-His6; factor 1.8 for true mass:mobility-based mass

| Protein | stoichiometry N [1] | stoichiometry N [2] |
| --- | --- | --- |
| KefC-CTD:KefF fusion protein (complex, E. coli, synthetic flexible 12-residue linker with a thrombin motif that is not cleaved under the conditions used; KefF, ancillary subunit of the E. coli KefC system, full length; pET-28-derived vector; tag removed with thrombin overnight at 4 °C; also called KefC-CTD/KefF complex; fusion complex; source: E. coli BL21(DE3), purified (Ni-NTA with imidazole gradient, Superdex 200 gel filtration); not shown: …) RVIIAGFGRFGQITGRLLLSSGVKMVVLDHDPDHIETLRKFGMKVFYGDATRMDLLESAGAAKAEVLINAIDDPQTNLQLTEMVKEHFPHLQIIARARDVDHYIRLRQAGVEKPERETFEGALKTGRLALESLGLGPYEARERADVFRRFNIQMVEEMAMVENDTKARAAVYKRTSAMLSEIITEDREHLSLIQRHGWQGTEEGKHTGNMADEPETKPSSTSGGLVPRGSSGMILIIYAHPYPHHSHANKRMLEQARTLEGVEIRSLYQLYPDFNIDIAAEQEALSRADLIVWQHPMQWYSIPPLLKLWIDKVFSHGWAYGHGGTALHGKHLLWAVTTGGGESHFEIGAHPGFDVLSQPLQATAIYCGLNWLPPFAMHCTFICDDETLEGQARHYKQRLLEWQEAHHG | 2 | – |
| full-length recombinant KefC (natural protein, E. coli, UniProt P03819 1-620, looked up, E. coli KefC glutathione-gated K+ efflux system, full length; Blue native PAGE was done without KefF; Also used here as the wild-type KefC of the efflux experiments (plasmids pSM12 and pKefFKefCHis6 in E. coli MJF335); also called whole KefC channels; source: E. coli, overexpressed, bacterial membranes solubilized with 1.5% dodecylmaltoside) MDSHTLIQALIYLGSAALIVPIAVRLGLGSVLGYLIAGCIIGPWGLRLVTDAESILHFAEIGVVLMLFIIGLELDPQRLWKLRAAVFGCGALQMVICGGLLGLFCMLLGLRWQVAELIGMTLALSSTAIAMQAMNERNLMVTQMGRSAFAVLLFQDIAAIPLVAMIPLLATSSASTTMGAFALSALKVAGALVLVVLLGRYVTRPALRFVARSGLREVFSAVALFLVFGFGLLLEEVGLSMAMGAFLAGVLLASSEYRHALESDIEPFKGLLLGLFFIGVGMSIDFGTLLENPLRIVILLLGFLIIKIAMLWLIARPLQVPNKQRRWFAVLLGQGSEFAFVVFGAAQMANVLEPEWAKSLTLAVALSMAATPILLVILNRLEQSSTEEAREADEIDEEQPRVIIAGFGRFGQITGRLLLSSGVKMVVLDHDPDHIETLRKFGMKVFYGDATRMDLLESAGAAKAEVLINAIDDPQTNLQLTEMVKEHFPHLQIIARARDVDHYIRLRQAGVEKPERETFEGALKTGRLALESLGLGPYEARERADVFRRFNIQMVEEMAMVENDTKARAAVYKRTSAMLSEIITEDREHLSLIQRHGWQGTEEGKHTGNMADEPETKPSS | – | 2 |
